T1: CTGF (Homo sapiens, UniProt P29279)
T1 sequence (P29279 27-349): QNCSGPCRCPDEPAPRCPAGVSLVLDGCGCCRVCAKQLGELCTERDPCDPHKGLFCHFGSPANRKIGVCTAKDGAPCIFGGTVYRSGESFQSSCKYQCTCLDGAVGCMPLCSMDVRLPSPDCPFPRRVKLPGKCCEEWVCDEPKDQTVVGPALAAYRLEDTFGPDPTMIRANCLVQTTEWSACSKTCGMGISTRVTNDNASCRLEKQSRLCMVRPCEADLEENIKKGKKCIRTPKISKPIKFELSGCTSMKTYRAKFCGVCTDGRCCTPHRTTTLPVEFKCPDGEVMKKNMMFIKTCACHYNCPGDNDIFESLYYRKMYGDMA

T2: huWISP-1 (Homo sapiens, UniProt O95388)
T2 sequence (O95388 23-367): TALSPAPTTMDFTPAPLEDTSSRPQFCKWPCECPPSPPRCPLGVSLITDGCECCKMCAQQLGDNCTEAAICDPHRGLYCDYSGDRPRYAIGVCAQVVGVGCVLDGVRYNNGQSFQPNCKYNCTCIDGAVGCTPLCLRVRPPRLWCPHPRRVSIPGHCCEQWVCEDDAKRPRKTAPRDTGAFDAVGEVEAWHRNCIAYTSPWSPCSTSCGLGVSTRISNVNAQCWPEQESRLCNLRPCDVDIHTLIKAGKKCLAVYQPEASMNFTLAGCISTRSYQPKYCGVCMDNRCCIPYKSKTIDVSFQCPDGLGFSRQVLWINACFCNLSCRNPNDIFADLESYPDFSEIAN

T3: huWISP-3 (Homo sapiens, UniProt O95389)
T3 sequence (O95389 24-354): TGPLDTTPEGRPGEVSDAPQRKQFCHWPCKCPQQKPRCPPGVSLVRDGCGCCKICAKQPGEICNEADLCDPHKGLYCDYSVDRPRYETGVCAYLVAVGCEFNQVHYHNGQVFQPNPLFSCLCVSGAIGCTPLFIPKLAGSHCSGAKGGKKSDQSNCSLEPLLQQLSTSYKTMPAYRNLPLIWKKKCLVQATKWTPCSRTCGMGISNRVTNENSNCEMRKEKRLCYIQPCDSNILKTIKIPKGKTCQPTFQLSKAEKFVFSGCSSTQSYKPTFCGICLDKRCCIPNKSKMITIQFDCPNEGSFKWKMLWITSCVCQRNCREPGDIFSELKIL


What was measured:
CTGF = target: T1, CTGF; assay: Specificity ELISA (CCN proteins), human CTGF; type: binding; details: coated 1 μg/ml, muteins from 1000 nM
Protocol: (§1) Binding of muteins to closely related proteins of CTGF was tested by an ELISA assay. In detail, a 384-well plate suitable for fluorescence measurements (Greiner FLUOTRAC™ 600, black flat bottom, high-binding) was coated with 20 μl of human CTGF or the other members of the CCN protein family at a concentration of 1 μg/ml in PBS over night at 4° C. After washing with PBS with 0.05% Tween 20, wells were blocked with 100 μl blocking buffer containing 0.1% Tween 20 and 2% BSA (PBS-T/BSA) for 1 h at room temperature. 20 μl of serially diluted muteins starting at 1000 nM were incubated in PBS-T/BSA for 1 h at room temperature (RT).
(§2) The residual supernatants were discarded and 20 μl HRP-labeled anti-NGAL or anti-Strep-Tag antibody was added at a predetermined optimal concentration in PBS-T/BSA and incubated for 1 h at RT. After washing, 20 μl fluorogenic HRP substrate (QuantaBlu, Thermo) was added to each well, and the reaction was allowed to proceed for 2 to 60 minutes. The fluorescence intensity of every well on the plate was read using a fluorescence microplate reader (Tecan). When the signal for human CTGF approached saturation, the cross reactivity to the other proteins was assessed.

[1] = Thermal stability assessment by nanoDSC; type: physicochemical; details: 1 mg/mL in PBS, scan 25-100° C. at 1° C./min; for TM: major transition
Method in brief: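 CTGF-specific lipocalin muteins at 1 mg/mL in PBS scanned from 25 to 100° C at 1° C/min by capillary nano-DSC. Where several transitions occur, the Tm of the major unfolding event is reported, along with onset temperature. Some muteins were expressed in E. coli, others in CHO cells.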

huWISP-1 = target: T2, huWISP-1; assay: Specificity ELISA (CCN proteins), huWISP-1; type: binding; details: coated 1 μg/ml; assessed when human CTGF signal approached saturation
Protocol: as §1, §2

huWISP-3 = target: T3, huWISP-3; assay: Specificity ELISA (CCN proteins), huWISP-3; type: binding; details: coated 1 μg/ml; assessed when human CTGF signal approached saturation
Protocol: as §1, §2

[2] = target: T4, Human CTGF with a human IgG1 Fc Tag (Homo sapiens, UniProt P29279, H83D); assay: SPR epitope analysis (simultaneous binding)
T4 construct: purchased Creative Biomart
Protocol: Surface plasmon resonance (SPR) was used to analyze the epitopes and determine simultaneous binding of different lipocalin muteins. Human CTGF with a human IgG1 Fc Tag was directly immobilized to a CM5 Chip (Creative Biomart, 10 μg/mL in 10 mM sodium acetate pH 4.5) until an immobilization level of 470-630 resonance units was achieved. The reference channel was activated/deactivated. […] As control, single lipocalin muteins were injected and the resulting signal of single and mixtures was compared at the end of the injection. The chip was regenerated with 3 M MgCl2 and Glycine-HCl pH1.5 for each 60 s at a flowrate of 15 μL/min.
“Yes” means simultaneous binding is possible, “no” stands for same or overlapping epitope, “n.t.” stands for not tested.

[3] = SPR, mixed and injected simultaneously at 750 nM or 1000 nM

T4 sequence (P29279 with tags, fused parts or gaps H83D): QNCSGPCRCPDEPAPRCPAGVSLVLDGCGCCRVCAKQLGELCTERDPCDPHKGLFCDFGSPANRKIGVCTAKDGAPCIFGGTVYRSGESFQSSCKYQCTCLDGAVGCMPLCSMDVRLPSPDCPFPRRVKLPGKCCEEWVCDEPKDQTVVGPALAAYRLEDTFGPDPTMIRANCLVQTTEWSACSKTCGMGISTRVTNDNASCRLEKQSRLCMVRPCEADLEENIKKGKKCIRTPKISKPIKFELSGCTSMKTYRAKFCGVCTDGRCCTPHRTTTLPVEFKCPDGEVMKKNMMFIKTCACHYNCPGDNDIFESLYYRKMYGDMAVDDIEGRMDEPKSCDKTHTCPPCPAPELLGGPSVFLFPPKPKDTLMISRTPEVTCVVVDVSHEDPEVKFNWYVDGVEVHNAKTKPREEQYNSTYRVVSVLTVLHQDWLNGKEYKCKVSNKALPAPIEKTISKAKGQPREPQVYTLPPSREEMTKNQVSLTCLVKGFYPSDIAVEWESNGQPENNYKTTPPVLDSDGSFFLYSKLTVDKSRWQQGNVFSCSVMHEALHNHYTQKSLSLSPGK

ELISA binding to HUMAN CTGF (CTGF) | ELISA binding to huWISP-1 (huWISP-1) | ELISA binding to huWISP-3 (huWISP-3) | Simultaneous binding with SEQ ID NO: 7 [2, 3] | Simultaneous binding with SEQ ID NO: 9 [2, 3] | Simultaneous binding with SEQ ID NO: 25 [2, 3] | Simultaneous binding with SEQ ID NO: 29 [2, 3] | Simultaneous binding with SEQ ID NO: 60 and 61 (control antibody) [2, 3] | Epitope overlap with anti-CTGF antibody of SEQ ID NOs: 60 and 61 [2] | Simultaneous binding with SEQ ID NO: 3 [2, 3] | Molecule | ONSET MELTING [1] [°C] | TM [1] [°C]
Binding | No binding | No binding |  |  |  |  |  |  |  | SEQ ID NO: 74: fusion protein comprising two CTGF-binding lipocalin muteins (protein, fusion protein) QDSTSDLIPAPPLSKVPLQQNFQDNQFQGKWYVVGLAGNAILREDKQPAKMFATIYELKEDKSYDVTSVRFEAKSCKYTIKTFVPGSQPGEFTAGYIKSAPGQTSTLVRVVSTNYNQHAMVFFKHVTQNREIFVITLYGRTKELTSELKENFIRFSKSLGLPENHIVFPVPIDQCIDGGGGGSGGGGSGGGGSQDSTSDLIPAPPLSKVPLQQNFQDNQFQGKWYVVGWAGNVKLREDKQPQKMSATIYELKEDKSYDVTEVVFEQKKCHYIIKTFVPGSQPGEFTAGDIKSPPGYTSSLVRVVSTNYNQHAMVFFKKVSQNREFFWITLYGRTKELTSELKENFIRFSKSLGLPENHIVFPVPIDQCIDG | 62 | 72
Binding | No binding | No binding | no | no | yes | yes | no |  |  | SEQ ID NO: 7: parent CTGF-binding hNGAL lipocalin mutein (protein, lipocalin mutein) QDSTSDLIPAPPLSKVPLQQNFQDNQFHGKWYVVGLAGNYGLRTDKRPSKMFATIYELKEDKSYDVTSVRFEQERCHYTIRTFVPGSQPGEFTTGSIKSRPGQTSSLVRVVSTNYNQHAMVFFKSVIQNREYFAITLYGRTKELTSELKENFIRFSKSLGLPENHIVFPVPIDQCIDG |  | 65
Binding | No binding | No binding |  |  |  |  |  | overlapped |  | SEQ ID NO: 23: optimized CTGF-binding hNGAL lipocalin mutein (protein, lipocalin mutein) QDSTSDLIPAPPLSKVPLQQNFQDNQFQGKWYVVGVAGNAILRPDKQPAKMFATIYELKEDKSYDVTSVRFEAKSCKYTIKTFVPGSQPGEFTSGQIKSAPGQTSTLVRVVSTNYNQHAMVFFKHVSQNREIFVITLYGRTKELTSELKENFIRFSKSLGLPENHIVFPVPIDQCIDG | 55 | 71
Binding | No binding | No binding | no | no | yes | yes | no |  |  | SEQ ID NO: 9: parent CTGF-binding hNGAL lipocalin mutein (protein, lipocalin mutein) QDSTSDLIPAPPLSKVPLQQNFQDNQFHGKWYVVGLAGNKILRIDKQPAKMFATIYELKEDKSYDVTSVRFEARSCSYTIKTFVPGSQPGEFTAGNIKSAPGQTSTLVRVVSTNYNQHAMVFFKHVSQNRETFVITLYGRTKELTSELKENFIRFSKSLGLPENHIVFPVPIDQCIDG |  | 64
Binding | No binding | No binding |  |  |  |  |  |  |  | SEQ ID NO: 15: optimized CTGF-binding hNGAL lipocalin mutein (protein, lipocalin mutein) QDSTSDLIPAPPLSKVPLQQNFQDNQFQGKWYVVGLAGNAILREDKQPAKMFATIYELKEDKSYDVTSVRFEAKSCKYTIKTFVPGSQPGEFTAGYIKSAPGQTSTLVRVVSTNYNQHAMVFFKHVTQNREIFVITLYGRTKELTSELKENFIRFSKSLGLPENHIVFPVPIDQCIDG | 59 | 73
Binding | No binding | No binding |  |  |  |  | yes |  | no | SEQ ID NO: 3: parent CTGF-binding hNGAL lipocalin mutein (protein, lipocalin mutein) QDSTSDLIPAPPLSKVPLQQNFQDNQFHGKWYVVGRAGNNRLREDKDPPKMWATIYELKEDKSYNVTHVHFMTKKCRYIIDTFVPGSQPGEFTLGAIKSGPGMTSPLVRIVSTNYNQHAMVFFKWVNQNREWFTITLYGRTKELTSELKENFIRFSKSLGLPENHIVFPVPIDQCIDG |  | 58
Binding | No binding | No binding | yes | yes | no | no | yes |  |  | SEQ ID NO: 25: parent CTGF-binding hNGAL lipocalin mutein (protein, lipocalin mutein) QDSTSDLIPAPPLSKVPLQQNFQDNQFHGKWYVVGMAGNFRLREDKDPSKMGATIYELKEDKSYNVTQVQFDDKKCLYVIETFVPGSQPGEFTLGAIKSFPGFTSQLVRVVSTNYNQHAMVFFKKVYQNREVFWITLYGRTKELTSELKENFIRFSKSLGLPENHIVFPVPIDQCIDG |  | 66
Binding | No binding | No binding | yes | yes | no | no | yes |  |  | SEQ ID NO: 29: parent CTGF-binding hNGAL lipocalin mutein (protein, lipocalin mutein) QDSTSDLIPAPPLSKVPLQQNFQDNQFHGKWYVVGWAGNIKLREDKDPFKMSATIYELKEDKSYNVTEVVFEQKKCHYIIKTFVPGSQPGEFTLGDIKSPPGETSSLVRVVSTNYNQHAMVFFKKVFQNREFFWITLYGRTKELTSELKENFIRFSKSLGLPENHIVFPVPIDQCIDG |  | 76

— patent US20240228562A1, “NOVEL LIPOCALIN MUTEINS SPECIFIC FOR CONNECTIVE TISSUE GROWTH FACTOR (CTGF)” (PIERIS PHARMACEUTICALS GMBH, priority 2021, published 2024)
